Positions count from the first letter of the chain named.
Key:
Assay in all cases: SPR
GBP1 mutant R227A/K228A = target: T1, GBP1 mutant R227A/K228A (human, UniProt P32455 1-592, R227A | K228A)
T1 sequence (looked up): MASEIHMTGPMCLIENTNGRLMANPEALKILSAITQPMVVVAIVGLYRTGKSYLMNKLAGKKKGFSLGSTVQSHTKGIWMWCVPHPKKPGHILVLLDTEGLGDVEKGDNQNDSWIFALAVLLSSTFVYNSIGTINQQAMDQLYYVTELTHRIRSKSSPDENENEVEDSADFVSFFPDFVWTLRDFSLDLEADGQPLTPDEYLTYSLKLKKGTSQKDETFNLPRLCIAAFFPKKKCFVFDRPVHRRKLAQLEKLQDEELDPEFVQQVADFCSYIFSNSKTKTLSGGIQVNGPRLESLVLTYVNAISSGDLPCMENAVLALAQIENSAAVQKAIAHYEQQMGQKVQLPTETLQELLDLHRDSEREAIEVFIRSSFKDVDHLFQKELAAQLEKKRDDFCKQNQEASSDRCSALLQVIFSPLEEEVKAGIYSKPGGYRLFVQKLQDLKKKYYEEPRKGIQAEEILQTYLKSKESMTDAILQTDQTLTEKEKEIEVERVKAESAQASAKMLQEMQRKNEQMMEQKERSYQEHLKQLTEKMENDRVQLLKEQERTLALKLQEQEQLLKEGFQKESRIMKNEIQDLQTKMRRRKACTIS

GBP1 mutant R48A = target: T2, GBP1 mutant R48A (human, UniProt P32455 1-592, R48A)
T2 sequence (looked up): T1 sequence (looked up) with R48A, A227R, A228K

GBP1 mutant K51A = target: T3, GBP1 mutant K51A (human, UniProt P32455 1-592, K51A)
T3 sequence (looked up): T1 sequence (looked up) with K51A, A227R, A228K

GBP1 mutant D184A = target: T4, GBP1 mutant D184A (human, UniProt P32455 1-592, D184A)
T4 sequence (looked up): T1 sequence (looked up) with D184A, A227R, A228K

B1: PIM1 (recombinant) (enzyme)
chain: not shown
**Q.** With B1 as the binder, how does the Kd (GBP1 mutant R227A/K228A) read?
**A.** 137 ± 14 nM

**Q.** What about the Kd (GBP1 mutant R48A) of the same binder?
**A.** 290 ± 21 nM

**Q.** What about the Kd (GBP1 mutant K51A) of the same binder?
**A.** 50 ± 10 nM

**Q.** What about the Kd (GBP1 mutant D184A) of the same binder?
**A.** 80 ± 5 nM

Reference: paper PMC4191604 (Journal of Medicinal Chemistry, 2014)
